Assay results: patent US20190276551A1 (UNIVERSITY MEDICAL CENTER HAMBURG EPPENDORF, published 2019)
Changes are numbered by the printed parent chain.

B1: Jk34 (VHH)
VHH: QVQLQESGGRLVQPGGSLRLSCAASGRTFSNYAMAWFRQGPGKEREFVAAISAADSTLYADFVKGRFTISRDNAKNTVYLQMNSLKPEDTAVYYCAARWWIAVRAPAEYNYWGQGTQVTVSS
notes: His6-Myc-tagged monovalent VHH; also called I-14.2c; family 11
B2: Jk35 (VHH)
VHH: B1 VHH with Q3K
notes: His6-Myc-tagged monovalent VHH; also called I-14.2d; family 11
B3: MU413 (VHH)
VHH: DVQLQASGGGLVQTGDSLTVSCAASGLSFTRYTMGWYREVPGKERREFVAAVKPAGDSAYYGASVKGRFTASRDNAKNTVTLQMNSLKPEDTAIYYCAAGFPVLTALHIADPDYWGQGTQVTVSP
notes: His6-Myc-tagged monovalent VHH; also called I-15.2b; family 13
B4: Jk20 (VHH)
VHH: QVQLQESGGGLVQAGGSLRLSCAISGRTFIADMGWFRQAPGKEREFQAGITWFGGSTYYADSVKGRFTISRDNTKNTLYLQMNSLKPEDTAIYYCAAGLKRIGDQREADYWGQGTQVTVSS
notes: His6-Myc-tagged monovalent VHH; also called I-13.1a; family 8
B5: Jk27 (VHH)
VHH: B4 VHH with Q1E, Q5V, S120A
notes: His6-Myc-tagged monovalent VHH; also called s-13.1a; family 8
B6: Jk26 (VHH)
VHH: B4 VHH with L18V, A31N
notes: His6-Myc-tagged monovalent VHH; also called I-13.1b; family 8
B7: MU1065 (VHH)
VHH: DVQLQESGGGLVQAGDSLRLSCAASGPHFNNYAIGWFRQAPGKEREFVAGISWSSGSLLYSDSVKGRFTISRDNDKNTAYLQMNSLKPEDTALYYCAAQYQERYYSDFSLKEKGMEYWGKGTLVTVSS
notes: His6-Myc-tagged monovalent VHH; also called I-19.1b; family 19
B8: Jk24 (VHH)
VHH: QVQLQESGGGLVQPGGSLRLSCAASGIILRIYDMGWYRQAPGKQRELVAEITSGGSTNYADSVKGRFTISRDNAENTVSLQMNSLKPGDTAVYYCNAHHTFAGAYWGQGTQVTVSS
notes: His6-Myc-tagged monovalent VHH; also called I-8.2c; family 2
B9: Jk30 (VHH)
VHH: B8 VHH with E50A, S56R, P87S, H98D, A104V
notes: His6-Myc-tagged monovalent VHH; also called I-8.2b; family 2
B10: Jk31 (VHH)
VHH: B8 VHH with I31L, A40T, P87S, H98D, A104V
notes: His6-Myc-tagged monovalent VHH; also called I-8.2d; family 2
B11: Jk32 (VHH)
VHH: B8 VHH with I27S, I28T, I31L, P41D, D61N, G88E, H98E, A102M
notes: His6-Myc-tagged monovalent VHH; also called I-8.2e; family 2
B12: Jk25 (VHH)
VHH: QVKLQESGGGLVQPGGSLRLSCVASGSISSIITMGWYRQAPGKQREFVARVIIGGSTGYADSVKGRFTISRDNTKNTVYLEMNSLKPEDTAVYYCNAGNPGTSYHYWGQGTQVTVSS
notes: His6-Myc-tagged monovalent VHH; also called I-9.3a; family 6
B13: MU1103 (VHH)
VHH: DVQLQASGGGLVQAGGSLRLSCAASEFTFDDYVIGWFRQAPGKEREGVSSISSDGSTYYADSVKGRFTISSDNAKNTVYLHMNSLKPEDTAVYYCAADVTLNPFTGWTTRSGPMYRYEYDYWGQGTQVTVSS
notes: His6-Myc-tagged monovalent VHH; also called s-24.1c; family 22
B14: Jk46 (VHH)
VHH: QVQLQESGGGLVQAGGSLRLSCAASGRTFSSVAMGWFRQAPGKEREFVATINWSGGRTTYADSVKGRFTISRDSAKNTVYLQMNSLKPEDTAVYYCAADRFSVVAVEYDYWGQGTQVTVSS
notes: His6-Myc-tagged monovalent VHH; also called family 7
B15: JK12 (VHH)
VHH: QVQLQESGGGLVQPGGSLRLSCVASERIFSRNTMGWYRQAPGKQRELVARIASLGITNYADSVKGRFTISSDNAKNTVYLQMNNLKPEDTAVYYCNYWHYAAGRDYWGQGTQVTVSS
notes: His6-Myc-tagged monovalent VHH; also called I-9.1a; family 4
B16: Jk14 (VHH)
VHH: B15 VHH with Q1E, Q5V, P14A
notes: His6-Myc-tagged monovalent VHH; also called I-9.1b; family 4
B17: Jk42 (VHH)
VHH: B15 VHH with Q3K, R50Y, A52T, T57A, P87S, Y94N
notes: His6-Myc-tagged monovalent VHH; also called I-9.1d; family 4
B18: MU727 (VHH)
VHH: DVQLQASGGGLVQAGGSLRLSCAGSGRTFSSYAMGWFRQAPGKEREFVASISWSGSRTNYGVPVKGRFTISRDNAKNTVYLQMSSLKPEDTAVYYCAADRFAVAIGTHDLDYWGQGTQVTVSS
notes: His6-Myc-tagged monovalent VHH; also called s-14.1d; family 9
B19: WF129 (VHH)
VHH: DVQLQASGGGLVQAGGSLRLSCEFSGRTFSGFAMGWFRQFPGKEREFVAAINWSGSSVDYSDSVKGRFTISRDNVKSTMYLVMNSLKPEDTAVYYCAEARSAELGSSRKIQGYDQWGRGTQVTVSS
notes: His6-Myc-tagged monovalent VHH; also called I-17.1b; family 18
B20: WF141 (VHH)
VHH: B19 VHH with Q121R
notes: His6-Myc-tagged monovalent VHH; also called I-17.1c; family 18
B21: MU725 (VHH)
VHH: B13 VHH with A6E, E26G, S53N, D54N, G55N, S70A, H81Q, T108N
notes: His6-Myc-tagged monovalent VHH; also called family 22
B22: MU737 (VHH)
VHH: B18 VHH with T28S, E44A, F47I, S50T, S52T, W53R, S56G, R57S, G61A, I105S
notes: His6-Myc-tagged monovalent VHH; also called s-14.1c; family 9
B23: MU1053 (VHH)
VHH: DVQLQESGGGLVQAGGSLRLSCTGSGRTFRNYPMAWFRQAPGKEREFVAGITWVGASTLYADFAKGRFTISRDNAKNTVYLQMNSLKPEDTAVYSCAAGRGIVAGRIPAEYADWGQGTQVTVSS
notes: also called L-15.3; I-15.3a
B24: MU523 (VHH)
VHH: DVQLQESGGGLVQAGSSLRISCAVSGVRLDNYAMGWFRQAPGKERESVAGISWSSGTLLYSDSVKGRFAISRDNAKNTVYLQMNSLKPEDTAVYYCAAQYQDRYYDEFTWKEKDMDYWGKGTLVTVSS
notes: His6-Myc-tagged monovalent VHH; also called L-19.1a; I-19.1a
B25: MU274 (VHH)
VHH: DVQLQESGGGLVQAGGSLRLSCAASGVSFSRYTMGWYREVPGKERREFVAAVRPSGDSTYYGNSVKGRFSISRDDDKNIVYLQMNSLKPEDTAVYYCAAGFPVLVALSIADPDYWGQGTQVTVST
notes: also called L-15.2a; I-15.2a
B26: MU397 (VHH)
VHH: DVQLQASGGGLVQAGGSLRLSCAPSGGTFDAYDMGWYREAPGKKRQFVAAVRSGGGTTRYADSVKGRFTISRDDAKDTVFLQMNSLKPEDTALYYCAADRWGLFSLSIATPTHWGQGTQVTVSS
notes: His6-Myc-tagged monovalent VHH; also called L-15.1a; I-15.1a
B27: MU415 (VHH)
VHH: VQLQASGGGLVQAGGSLRLSCTVSGFTSDDYTVGWFRQAPGLKREGLSCLSRRDGRFYHSNSVKGRFTMSSDDNKNTVYLQLDSLKPDDTAVYYCAATTSVVVLLAPNWYEYWGQGTQVTVSS
notes: also called L+15; I+15b
B28: MU370 (VHH)
VHH: DVQLQASGGGSVQAGGSLTLSCRYSGGFVFRVSSMGWYRQAPGNQRELIATITVGGKTNYKDSVQGRFIISRNDTTVTLQMNRLQPEDTAVYYCNLASTAVGADTWGQGTRVTVSS
notes: also called I-9.2a
B29: MU1068 (VHH)
VHH: DVQLQASGGGSVQEGESLKLSCVGSGRTFSDWAMGWYRQAPGKDREFVAAVSGAGRGGKPSYANSVKGRFTVSRDNAKNTVYLQMDNLKPEDTAVYYCAADRLVLVALSIADPGFWGQGTRVTVSS
notes: also called L-15.1b; I-15.1b
B30: WF139 (VHH)
VHH: SGGGLVQAGGSQRLSCAASGHTFSSYSMAWFRQAPGKEREFVAANIMSGTNTYYADSVRGRFTMSRDIAKNTVYLQMNSLKEEDTALYYCAAADRFRGWATWRDDPDQYDYWDQGTQVTVSS
notes: His6-Myc-tagged monovalent VHH; also called s-19b; s-19.1b
B31: WF114 (VHH)
VHH: VQLQESGGGLVQAGGSLRLSCAASGFTFDDYVIGWFRQAPGKECEGVSSISNNNSTYYADSVKGRFTIASDNAKNTVYLQMNSLKPEDTAVYYCAADVTLNPFTGWNTRSGPMYRYEYDYWGQGTQVTVSS
notes: His6-Myc-tagged monovalent VHH; also called s+/-24b; s-24.1b
B32: WF32 (VHH)
VHH: QVQLQESGGGLVQAGGSLRLSCAASGIILRIYDMGWYRQAPGKQRELVAAITSGGSTNYADSVKGRFTISRDNAKSMVYLQMNSLKPEDTAVYYCNAWHVFRGNYWGQGTQVTVSS
notes: His6-Myc-tagged monovalent VHH; also called I-8.2f; family 2
B33: MU1105 (VHH)
VHH: B13 VHH with E26G, D54S, T57I, H81Q, Y94F, T108D
notes: His6-Myc-tagged monovalent VHH; also called I-24a; I-24.1a
B34: WF140 (VHH)
VHH: DVQLQASGGGSVQAGGSLRLSCAASGLSFSDYAMGWFRQEPGKERRFVASIRSSGGTTYAESVKGRFTISRDNAKNTMYLQMNNLKPEDTAVYYCAADRLVITKLSIADPGYWGQGTQVTVSS
notes: also called s-15a; s-15.1a

Molecular target: T1, human CD38 on cells (human, UniProt P28907 1-300)
T1 construct: also called native CD38; CD38 on LP-1 myeloma cells, CD38-transfected NIH-3T3 cells, blood leukocytes, CD38-transfected DC27.10 cells
Test: binding assays of Example 4

| binding result | Binder |
| --- | --- |
| binds | B1 |
| binds | B2 |
| binds | B3 |
| binds | B4 |
| binds | B5 |
| binds | B6 |
| binds | B7 |
| binds | B8 |
| binds | B9 |
| binds | B10 |
| binds | B11 |
| binds | B12 |
| binds | B13 |
| binds | B14 |
| binds | B15 |
| binds | B16 |
| binds | B17 |
| binds | B18 |
| binds | B19 |
| binds | B20 |

Molecular target: T1, human CD38 on cells
Test: flow cytometry on human blood, bound VHH detected with FITC anti-c-myc 9E10, MFI of CD3-negative lymphocytes

| binding result | EC50 (read off the curve) | Binder |
| --- | --- | --- |
| binds | – | B21 |
| binds | – | B22 |
| – | ~0.1 nM | B23 |

Molecular target: T2, soluble, non-glycosylated, recombinant human CD38 (human, UniProt P28907 43-300, Alexa 647 conjugate)
T2 construct: also called recombinant human non-glycosylated extracellular domain of CD38
Test: micro-scale thermophoresis, n = 2

| Kd | Binder |
| --- | --- |
| 3 nM | B24 |
| 3 nM | B25 |
| 1 nM | B26 |
| 23 nM | B27 |
| 225 nM | B28 |
| 1.38 nM | B29 |

Molecular target: T3, human CD38 protein immobilised on AR2G biosensor (human, UniProt P28907 43-300, limits assumed)
T3 construct: Construct used on the Octet is not described; also called immobilised human CD38
Test: Octet BLI, immobilised CD38

| koff | Binder |
| --- | --- |
| < 0.00022 s⁻¹ | B30 |
| < 0.00014 s⁻¹ | B31 |
| 0.00026 s⁻¹ | B32 |
| < 0.0003 s⁻¹ | B33 |
| 0.00054 s⁻¹ | B34 |
